From patent publication CN116535503A (KANGYUAN BOCHUANG BIOLOGICAL TECH BEIJING CO LTD, dated 2023)

B1: AV380-hIgG1 (antibody)
heavy: not shown
light: DIQMTQSPASLSASVGETVTITCRTSENLHNYLAWYQQKQGKSPQLLVYDAKTLADGVPSRFSGSGSGTQYSLKINSLQPEDFGSYYCQHFWSSPYTFGGGTKLEIKRTVAAPSVFIFPPSDEQLKSGTASVVCLLNNFYPREAKVQWKVDNALQSGNSQESVTEQDSKDSTYSLSSTLTLSKADYEKHKVYACEVTHQGLSSPVTKSFNRGEC
B2: 53E5(hz) (antibody, human IgG1, kappa, V domains shown)
VH: QVQLQESGPGLVKPSETLSLTCTFSGFSLSTSGMGVGWIRQPPGKGLEWLAHILWDDVKRYNPALKSRLTISKDSSKSQISLKLSSVTAADTAVYYCVQMAWDWFAYWGQGTTVTVSS
VL: DIQMTQSPSSLSASVGDRVTITCKASQNVDTNVAWYQQKPGQSPKALIYSASYRSSGVPSRFSGSGSGTDFTLTISSLQPEDFATYYCQQYHSYPTFGQGTRLEIKR
notes: also called 人源化抗体53E5(hz); 53E5人源化

Columns and labels:
[1] = target: T1, GDF15-HIS(百普赛斯，CAT#:GD5-H5149) (human, UniProt Q99988 197-308); test: cell-based or functional assay
T1 sequence (looked up): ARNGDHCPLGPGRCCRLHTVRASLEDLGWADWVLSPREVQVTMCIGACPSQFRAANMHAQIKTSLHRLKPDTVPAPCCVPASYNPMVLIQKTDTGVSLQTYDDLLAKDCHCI

GDF3(R&D，5754-G3-010) = target: T2, GDF3(R&D，5754-G3-010) (UniProt Q9NR23 251-364); test: ELISA, GDF3 coated at 1 μg/ml, HRP-anti-human IgG
T2 sequence (looked up): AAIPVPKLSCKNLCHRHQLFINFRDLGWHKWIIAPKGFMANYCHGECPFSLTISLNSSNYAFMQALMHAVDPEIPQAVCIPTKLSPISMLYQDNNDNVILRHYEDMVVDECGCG

GDF1(R&D，6937-GD-010) = target: T3, GDF1(R&D，6937-GD-010) (UniProt P27539 254-372); test: ELISA, GDF1 coated at 1 μg/ml, HRP-anti-human IgG
T3 sequence (looked up): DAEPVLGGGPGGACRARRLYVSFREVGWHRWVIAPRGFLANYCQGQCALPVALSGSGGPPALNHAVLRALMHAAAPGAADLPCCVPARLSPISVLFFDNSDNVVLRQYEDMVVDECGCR

Binder | Bottom (fold luciferase activity), HEK293 SRE-LUC2-cRET-GFRAL reporter cells [1] | IC50(μg/ml), luciferase in HEK293 SRE-LUC2-cRET-GFRAL reporter cells stimulated with 5 ng/ml GDF15-His [1] | binding result (GDF3(R&D，5754-G3-010)) | binding result (GDF1(R&D，6937-GD-010))
B1 | 1.03 | 0.0447 µg/mL | – | –
B2 | 1.1 | 0.0225 µg/mL | no binding (tested: 4μg/ml) | no binding (tested: 4μg/ml)
